Where two headings read alike, the source gives them in different places.
Legend:
[1] = Partition coefficient, n-octanol / 0.1 M phosphate buffer; format: physicochemical; conditions: shake-flask, 2.0 mL n-octanol / 2.0 mL 0.1 M phosphate buffer pH 7.4, room temperature, 20 uL radioactive sample, mixed twice 1 min, radioactivity counting; mean ± SD; read-out: Partition coefficient, log (n-octanol/0.1 M phosphate buffer)
Method: The partition coefficients of ^111In-labeled 3-arm and 4-arm DOTA-α-MSH were measured using 2.0 mL n-octanol as the organic phase and 2.0 mL 0.l M phosphate buffer as the aqueous phase (pH 7.4 for plasma). N-octanol and the buffer were pre-mixed twice using a mechanical mixer for 1 min at room temperature. Then, 20 µL radioactive sample were added and mixed twice using a mechanical mixer for 1 min at room temperature. The radioactivity of 200 uL of each phase was measured after centrifugation. Calculation of log (n-octanol/0.l M phosphate buffer) was performed.

[2] = Biological distribution in B16-F1 melanoma-bearing mice; format: in vivo, mouse; conditions: male, C57BL6, mouse, in vivo, iv, 37 kBq/mouse, total radioactivity, mean, n = 3 mice; for tissue uptake at 10 min / tissue uptake dose at 10 min: 10 min after i.v. 37 kBq/mouse; for tissue uptake at 0.5 h / tissue uptake dose at 0.5 h: 30 min after i.v. 37 kBq/mouse; for tissue uptake at 1 h / tissue uptake dose at 1 h: 60 min after i.v. 37 kBq/mouse; for tissue uptake at 2 h / tissue uptake dose at 2 h: 120 min after i.v. 37 kBq/mouse; for tissue uptake at 3 h / tissue uptake dose at 3 h: 180 min after i.v. 37 kBq/mouse
Method: (§1) C57BL6 male mice (5 weeks old) were transplanted with B16-F1 cells (5 × 10^5 cells/100 μL) into the thigh of the mice. […] The mice were housed and continuously monitored each day for 2 weeks in a 12-hour light/12-hour dark cycle with free access to food and water. The tumor size reached 8.7 ± 2.8 mm at 2 weeks after transplant of cells. Two mice with tumor sizes of 13 and 15 mm were excluded from our experiments. Mice with a tumor size <10 mm were fasted with no food overnight with water supplied ad libitum before experiments.
(§2) For biological distribution studies, B16-F1-bearing mice were administered ^111In-labeled 3-arm or 4-arm DOTA-α-MSH via the tail vein (37 kBq/mouse). At 10, 30, 60, 120, and 180 min after injection, the mice were euthanized under isoflurane (n = 3 per time point), and the following tissues were collected: brain, lung, heart, stomach, liver, small intestine, large intestine, kidney, blood, muscle, and B16-F1 melanoma. Tissues were weighed, and radioactivity was quantified using an automated γ-ray counter to calculate the percent injected dose (%ID) or percent injected dose per gram of tissue (%ID/g).
(§3) For SPECT imaging, ^111In-labeled 3-arm or 4-arm DOTA-α-MSH was injected into the tail vein of four B16-F1-bearing mice in total (37 MBq/mouse). For SPECT imaging, acquisition was started at 10 min after injection and continued every 10 min for 180 min. The data were reconstructed using the ordered subset expectation maximization method with 16 subsets and six iterations including no scatter and attenuation correction. The voxel size was set to 0.8×0.8×0.8 mm. Post-reconstruction smoothing filtering was applied using a 1.0-mm Gaussian filter. […] In these images, three to five regions of interest were placed over the kidney, muscle, and B16-F1 melanoma in which accumulation could be seen, and the time activity curve of each was obtained as the %ID/g.

[3] = system: B16-F1 melanoma-bearing mice; assay: as above; format: in vivo, mouse; conditions: for Melanoma-to-blood ratio / Melanoma-to-kidney ratio / Melanoma-to-muscle ratio: mean ± SD, four mice
Method: as §1, §2, §3

[4] = Stability analysis in plasma, liver and kidney of mice, ex vivo TLC; set-up: species or system mouse; conditions: γ-counter, mean ± SD, n = 3 mice
[5] = read-out: Biological distribution, Blood
[6] = read-out: Biological distribution, Brain
[7] = read-out: Biological distribution, Heart
[8] = read-out: Biological distribution, Kidney
[9] = read-out: Biological distribution, Large intestine
[10] = read-out: Biological distribution, Liver
[11] = read-out: Biological distribution, Lung
[12] = read-out: Biological distribution, Muscle
[13] = read-out: Biological distribution, Small intestine
[14] = read-out: Biological distribution, Stomach
[15] = B16-F1 melanoma, read-out: Biological distribution, Melanoma
[16] = average over all acquisition time points

Structure (SMILES): CSCC[C@H](NC(=O)[C@H](CO)NC(=O)[C@H](Cc1ccc(O)cc1)NC(=O)[C@H](CO)NC(C)=O)C(=O)N[C@@H](CCC(=O)O)C(=O)N[C@@H](Cc1c[nH]cn1)C(=O)N[C@@H](Cc1ccccc1)C(=O)N[C@@H](CCCNC(=N)N)C(=O)N[C@@H](Cc1c[nH]c2ccccc12)C(=O)NCC(=O)N[C@@H](CCCCNC(=S)Nc1ccc(C[C@H]2CN(CC(=O)O)CCN(CC(=O)O)CCN(CC(=O)O)CCN2CC(=O)O)cc1)C(=O)N1CCC[C@H]1C(=O)N[C@H](C(=O)O)C(C)C [^111In-labeled 4-arm DOTA-α-MSH, metal not drawn]
- logD [1]: -0.13 ± 0.04
- tissue uptake at 10 min [2, 5]: 4.03 %ID/g
- tissue uptake at 10 min [2, 6]: 0.04 %ID/g
- tissue uptake at 10 min [2, 7]: 0.55 %ID/g
- tissue uptake at 10 min [2, 8]: 17.1 %ID/g
- tissue uptake dose at 10 min [2, 9]: 0.03 %ID
- tissue uptake at 10 min [2, 10]: 2.52 %ID/g
- tissue uptake at 10 min [2, 11]: 0.42 %ID/g
- tissue uptake at 10 min [2, 12]: 0.1 %ID/g
- tissue uptake dose at 10 min [2, 13]: 0.05 %ID
- tissue uptake dose at 10 min [2, 14]: 0.09 %ID
- tissue uptake at 0.5 h [2, 5]: 2.02 %ID/g
- tissue uptake at 0.5 h [2, 6]: 0.03 %ID/g
- tissue uptake at 0.5 h [2, 7]: 0.46 %ID/g
- tissue uptake at 0.5 h [2, 8]: 13.3 %ID/g
- tissue uptake dose at 0.5 h [2, 9]: 0.03 %ID
- tissue uptake at 0.5 h [2, 10]: 1.45 %ID/g
- tissue uptake at 0.5 h [2, 11]: 0.52 %ID/g
- tissue uptake at 0.5 h [2, 12]: 0.12 %ID/g
- tissue uptake dose at 0.5 h [2, 13]: 0.04 %ID
- tissue uptake dose at 0.5 h [2, 14]: 0.09 %ID
- tissue uptake at 1 h [2, 5]: 1.01 %ID/g
- tissue uptake at 1 h [2, 6]: 0.03 %ID/g
- tissue uptake at 1 h [2, 7]: 0.38 %ID/g
- tissue uptake at 1 h [2, 8]: 8.12 %ID/g
- tissue uptake dose at 1 h [2, 9]: 0.04 %ID
- tissue uptake at 1 h [2, 10]: 1.18 %ID/g
- tissue uptake at 1 h [2, 11]: 0.22 %ID/g
- tissue uptake at 1 h [2, 12]: 0.08 %ID/g
- tissue uptake dose at 1 h [2, 13]: 0.03 %ID
- tissue uptake dose at 1 h [2, 14]: 0.08 %ID
- tissue uptake at 2 h [2, 5]: 0.11 %ID/g
- tissue uptake at 2 h [2, 6]: 0.02 %ID/g
- tissue uptake at 2 h [2, 7]: 0.14 %ID/g
- tissue uptake at 2 h [2, 8]: 6.31 %ID/g
- tissue uptake dose at 2 h [2, 9]: 0.03 %ID
- tissue uptake at 2 h [2, 10]: 0.9 %ID/g
- tissue uptake at 2 h [2, 11]: 0.13 %ID/g
- tissue uptake at 2 h [2, 12]: 0.04 %ID/g
- tissue uptake dose at 2 h [2, 13]: 0.02 %ID
- tissue uptake dose at 2 h [2, 14]: 0.05 %ID
- tissue uptake at 3 h [2, 5]: 0.03 %ID/g
- tissue uptake at 3 h [2, 6]: 0.01 %ID/g
- tissue uptake at 3 h [2, 7]: 0.05 %ID/g
- tissue uptake at 3 h [2, 8]: 5.19 %ID/g
- tissue uptake dose at 3 h [2, 9]: 0.03 %ID
- tissue uptake at 3 h [2, 10]: 0.61 %ID/g
- tissue uptake at 3 h [2, 11]: 0.06 %ID/g
- tissue uptake at 3 h [2, 12]: 0.03 %ID/g
- tissue uptake dose at 3 h [2, 13]: 0.02 %ID
- tissue uptake dose at 3 h [2, 14]: 0.05 %ID
- tissue uptake at 10 min [2, 15]: 2.22 %ID/g
- tissue uptake at 0.5 h [2, 15]: 2.25 %ID/g
- tissue uptake at 1 h [2, 15]: 3.34 %ID/g
- tissue uptake at 2 h [2, 15]: 4.52 %ID/g
- tissue uptake at 3 h [2, 15]: 4.83 %ID/g
- Melanoma-to-blood ratio ([3]; 10 min after injection): 0.55 ± 0.14
- Melanoma-to-kidney ratio ([3]; 10 min after injection): 0.13 ± 0.07
- Melanoma-to-muscle ratio ([3]; 10 min after injection): 22.20 ± 3.35
- Melanoma-to-blood ratio ([3]; 30 min after injection): 1.11 ± 0.28
- Melanoma-to-kidney ratio ([3]; 30 min after injection): 0.17 ± 0.11
- Melanoma-to-muscle ratio ([3]; 30 min after injection): 18.75 ± 4.45
- Melanoma-to-blood ratio ([3]; 60 min after injection): 3.31 ± 0.35
- Melanoma-to-kidney ratio ([3]; 60 min after injection): 0.41 ± 0.15
- Melanoma-to-muscle ratio ([3]; 60 min after injection): 41.75 ± 6.38
- Melanoma-to-blood ratio ([3]; 120 min after injection): 41.09 ± 4.78
- Melanoma-to-kidney ratio ([3]; 120 min after injection): 0.72 ± 0.18
- Melanoma-to-muscle ratio ([3]; 120 min after injection): 113.00 ± 7.33
- Melanoma-to-blood ratio ([3]; 180 min after injection): 155.81 ± 12.93
- Melanoma-to-kidney ratio ([3]; 180 min after injection): 0.93 ± 0.15
- Melanoma-to-muscle ratio ([3]; 180 min after injection): 155.81
- Melanoma-to-muscle ratio ([3]; 180 min after injection, listed as 4-arm DOTA-α-MSH): 155.81 ± 8.63
- Higher average accumulation in B16-F1 melanoma than 111In-labeled 3-arm DOTA-α-MSH [3, 16]: 1.32 fold
- Lower average accumulation in kidney than 111In-labeled 3-arm DOTA-α-MSH [3, 16]: 1.38 fold
- Fraction ratio of intact radiotracer, Kidney (%) ([4]; 10 min after i.v. injection 3.7 MBq/mouse): 96.1 ± 2.0%
- Fraction ratio of intact radiotracer, Kidney (%) ([4]; 60 min after i.v. injection 3.7 MBq/mouse): 93.3 ± 3.5%
- Fraction ratio of intact radiotracer, Kidney (%) ([4]; 120 min after i.v. injection 3.7 MBq/mouse): 84.5 ± 3.3%
- Fraction ratio of intact radiotracer, Kidney (%) ([4]; 180 min after i.v. injection 3.7 MBq/mouse): 80.5 ± 2.8%

From paper PMC6430397, “The pharmacological properties of 3-arm or 4-arm DOTA constructs for conjugation to α-melanocyte-stimulating hormone analogues for melanoma imaging” (PLoS ONE, 2019)
